Test results published in the supplement of paper PMC10567573.

B1: NET1 (parent)
chain: IKRTIRVLDVNNQSFREQEEPSNK

Variants of: B1
Experiment: protein stability index of a GFP-peptide fusion (GPS, HEK-293T) (PSI 1-6); higher = more stable
Conditions: c terminus: a fixed tail appended
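Also: lentivirally expressed fusions sorted by FACS into six bins by GFP to DsRed ratio, PSI derived from sequencing read proportions per bin multiplied by bin number.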

Variant | protein stability index
IKRTIRVLRVNNQSFREQEEPSNK | 3.54
IKRTIRVLSVNNQSFREQEEPSNK | 3.5
IKRTIRVLTVNNQSFREQEEPSNK | 2.9
IKRTIRVLWVNNQSFREQEEPSNK | 2.89
IKRTIRVLYVNNQSFREQEEPSNK | 2.41
IKRTIRVLDANNQSFREQEEPSNK | 3.38
IKRTIRVLDCNNQSFREQEEPSNK | 3.82
IKRTIRVLDDNNQSFREQEEPSNK | 4.83
IKRTIRVLDENNQSFREQEEPSNK | 4.79
IKRTIRVLDFNNQSFREQEEPSNK | 3.19
IKRTIRVLDGNNQSFREQEEPSNK | 4.22
IKRTIRVLDHNNQSFREQEEPSNK | 4.23
IKRTIRVLDINNQSFREQEEPSNK | 3.87
IKRTIRVLDKNNQSFREQEEPSNK | 4.35
IKRTIRVLDLNNQSFREQEEPSNK | 3.85
IKRTIRVLDMNNQSFREQEEPSNK | 4
IKRTIRVLDNNNQSFREQEEPSNK | 4.46
IKRTIRVLDPNNQSFREQEEPSNK | 3.21
IKRTIRVLDQNNQSFREQEEPSNK | 4.03
IKRTIRVLDRNNQSFREQEEPSNK | 4.04
IKRTIRVLDSNNQSFREQEEPSNK | 3.85
IKRTIRVLDTNNQSFREQEEPSNK | 4.23
IKRTIRVLDYNNQSFREQEEPSNK | 4.06
IKRTIRVLDVANQSFREQEEPSNK | 4.48

Variant | protein stability index
IKRTIRVLDVCNQSFREQEEPSNK | 3.09
IKRTIRVLDVDNQSFREQEEPSNK | 4.47
IKRTIRVLDVENQSFREQEEPSNK | 4.51
IKRTIRVLDVFNQSFREQEEPSNK | 2.61
IKRTIRVLDVGNQSFREQEEPSNK | 2.99
IKRTIRVLDVHNQSFREQEEPSNK | 3.62
IKRTIRVLDVINQSFREQEEPSNK | 1.85
IKRTIRVLDVKNQSFREQEEPSNK | 4.44
IKRTIRVLDVLNQSFREQEEPSNK | 2.26
IKRTIRVLDVMNQSFREQEEPSNK | 2.83
IKRTIRVLDVPNQSFREQEEPSNK | 4.16
IKRTIRVLDVQNQSFREQEEPSNK | 4.34
IKRTIRVLDVRNQSFREQEEPSNK | 4.41
IKRTIRVLDVSNQSFREQEEPSNK | 4.22
IKRTIRVLDVTNQSFREQEEPSNK | 3.41
IKRTIRVLDVVNQSFREQEEPSNK | 3.56
IKRTIRVLDVWNQSFREQEEPSNK | 2.65
IKRTIRVLDVYNQSFREQEEPSNK | 4.06
IKRTIRVLDVNAQSFREQEEPSNK | 3.38
IKRTIRVLDVNCQSFREQEEPSNK | 3.16
IKRTIRVLDVNDQSFREQEEPSNK | 4.21
IKRTIRVLDVNEQSFREQEEPSNK | 3.98
IKRTIRVLDVNFQSFREQEEPSNK | 2.7
IKRTIRVLDVNGQSFREQEEPSNK | 4.14

Variant | protein stability index
IKRTIRVLDVNHQSFREQEEPSNK | 3.83
IKRTIRVLDVNIQSFREQEEPSNK | 3.51
IKRTIRVLDVNKQSFREQEEPSNK | 2.72
IKRTIRVLDVNLQSFREQEEPSNK | 3.25
IKRTIRVLDVNMQSFREQEEPSNK | 3.29
IKRTIRVLDVNPQSFREQEEPSNK | 3.41
IKRTIRVLDVNQQSFREQEEPSNK | 4.08
IKRTIRVLDVNRQSFREQEEPSNK | 3.14
IKRTIRVLDVNSQSFREQEEPSNK | 2.82
IKRTIRVLDVNTQSFREQEEPSNK | 3.3
IKRTIRVLDVNVQSFREQEEPSNK | 2.97
IKRTIRVLDVNWQSFREQEEPSNK | 2.63
IKRTIRVLDVNYQSFREQEEPSNK | 3.21
IKRTIRVLDVNNASFREQEEPSNK | 4.18
IKRTIRVLDVNNCSFREQEEPSNK | 3.01
IKRTIRVLDVNNDSFREQEEPSNK | 3.56
IKRTIRVLDVNNESFREQEEPSNK | 4.26
IKRTIRVLDVNNFSFREQEEPSNK | 2.72
IKRTIRVLDVNNGSFREQEEPSNK | 3.8
IKRTIRVLDVNNHSFREQEEPSNK | 3.28
IKRTIRVLDVNNISFREQEEPSNK | 2.99
IKRTIRVLDVNNKSFREQEEPSNK | 3.7
IKRTIRVLDVNNLSFREQEEPSNK | 2.33
IKRTIRVLDVNNMSFREQEEPSNK | 3.8

Variant | protein stability index
IKRTIRVLDVNNNSFREQEEPSNK | 3.69
IKRTIRVLDVNNPSFREQEEPSNK | 3.35
IKRTIRVLDVNNRSFREQEEPSNK | 3.27
IKRTIRVLDVNNSSFREQEEPSNK | 4.19
IKRTIRVLDVNNTSFREQEEPSNK | 3.37
IKRTIRVLDVNNVSFREQEEPSNK | 3.67
IKRTIRVLDVNNWSFREQEEPSNK | 2.51
IKRTIRVLDVNNYSFREQEEPSNK | 2.04
IKRTIRVLDVNNQAFREQEEPSNK | 3.02
IKRTIRVLDVNNQCFREQEEPSNK | 3.27
IKRTIRVLDVNNQDFREQEEPSNK | 3.68
IKRTIRVLDVNNQEFREQEEPSNK | 3.79
IKRTIRVLDVNNQFFREQEEPSNK | 2.56
IKRTIRVLDVNNQGFREQEEPSNK | 4.17
IKRTIRVLDVNNQHFREQEEPSNK | 3.09
IKRTIRVLDVNNQIFREQEEPSNK | 3.64
IKRTIRVLDVNNQKFREQEEPSNK | 3.24
IKRTIRVLDVNNQLFREQEEPSNK | 2.62
IKRTIRVLDVNNQMFREQEEPSNK | 3.21
IKRTIRVLDVNNQNFREQEEPSNK | 3.47
IKRTIRVLDVNNQPFREQEEPSNK | 2.9
IKRTIRVLDVNNQQFREQEEPSNK | 3.91
